Where “and” joins values, the source holds several entries; their conditions need not be identical. Equal entries are not always repeated. Entries after “also recorded” stand apart in the source; their conditions may differ.
What was measured:
eosinophils = test: Example 2: high dose and multiple dose IL-5 on eosinophil numbers in blood; format: in vivo, pigs; conditions: rec.IL-5 IM 100 μg x1/x2/x4 or 500 μg x1
Experimental: This trial compared 2 doses of recombinant IL-5 (100 μg/500 μg) and compared multiple injections (x1/x2/x4) of one dose (100 μg) to elevate eosinophil numbers.
The experiment was conducted using medicated feed Barastoc EziWean 150 then Bunge Grolean CREEP ad libitum in an experimental environment (PC2 containment facilities). Blood total and differential counts were performed using a CellDyn 3700 haematology machine.
8 hrs later, bleed for haematology

E. coli = test: Example 5: production loss during outbreak of post weaning scours; format: in vivo, pigs; conditions: vs respective saline controls
Source text: (§1) Unfortunately, a severe outbreak of post weaning scours affected all treatment groups. The most likely cause of the scours was E. coli. […] FIG. 25 compares the average weights of the saline controls, with and without antibiotics, from this experiment and the previous experiment. […] The infectious disease (scours) affected the un-medicated saline group at an earlier stage than the medicated group.
(§2) Weights were taken from the start to the end of the weaner period. […] This benefit was also reflected in the production loss as measured by deaths from infectious disease, or weight loss over any given week during the weaner period (FIG. 29).
(§3) All other deaths were a result of scours. Weight loss was defined as one or more weekly weight reductions of individual pigs. […] Antibiotic supplements also lessened production loss. Weight loss could have also been a result of stress, especially at the time of weaning when pigs are removed from sows, transported, mixed in different social groups and fed dry food. […] The higher average weights were presumably due to reduced severity of disease and associated weight loss. […] The pattern of higher average weight gains in IL-5 treated pigs was repeated with the reduced level and normal level of antibiotic supplementation (FIG. 31 and FIG. 32 respectively). […]

[1] = as above; format: in vivo, pigs; conditions: normal antibiotics, 2 days into weaner period
Source text: as §1, §2, §3

[2] = Example 4: growth performance of pigs administered IL-5 in a commercial piggery; format: in vivo; parameters: average weight, higher than saline medicated controls / rate of gain (ROG), increase over saline medicated control / increase in total weight compared to saline medicated control group / increase in weight gain compared to saline medicated control group / increase in average weight compared to saline medicated control group: concentration or dose not given beside the values
Experimental: This trial evaluated the capacity of IL-5 to improve growth performance and immunity of pigs by comparing the growth rate and health of weaner pigs (28 day old weaners is Day 0 of the trial and the weaner period continued for 42 days) through to the finisher stage (Days 93 to 113) and slaughter (133 days after commencing the trial). The pigs were administered recombinant porcine cytokine, IL-5, and saline was used as a control, with and without standard weaner medicated water and feed in a commercial piggery environment.
40 pigs per treatment mixed in-groups of 20, with 4 replicates containing standard medicated water and feed and 4 replicates without medicated feed or water.
Overall weights for each group at the start of the experiment were equivalent. All pigs at the start of the trial (Day 0) were 28 day old male weaners.
IL-5 was provided in saline to inject one ml/pig.
Weights were measured at the start, weekly and at end of the experiment. The original proposal was designed for measuring weight over the weaner period; however, due to significant growth responses with IL-5 administration the measurement of weight continued to slaughter (pigs were 161 days old).
Recombinant porcine IL-5 was expressed in E. coli and purified using a polyHis tag system as described in Qiagen Inc, USA, instructions and Clontech, USA, Talon Manual instructions. IL-5 was tested for biological activity in a bioassay prior to the start of the experiment.
At the start of the trial, the mean weights and variance for each group were equalised. Thus, the increase in total or average weights witnessed in the IL-5 medicated group was due to IL-5 administration and not simply due to differences between weights at the start of the trial.

[3] = end of the treatment period, 1st trial, IL-5 plus medication

B1: interleukin 5 (protein, UniProt Q9MYM5 22-134, looked up)
Interleukin-5: VENTMNRLVAETLTLLSIHRTLLIGDGNLMISTPVHTNHQLCIEEVFQGIDTLKNQTARGDAVEKLFQNLSLIKEYIDRQKKNCGGERWRVTQFLDYLQVFLGVINTEWTMES
notes: recombinant porcine IL-5 protein expressed in E. coli; + / − = with / without antibiotic medicated feed and water, +p = weaner period only
average percentage eosinophil of WBC over 11 days (area under the curve) (eosinophils): increased eosinophil numbers in blood and higher dose and multiple doses were statistically significant and 4 injections of 100 μg (Days 0, 1, 4, 7) being more effective than a single injection of a higher single dose (500 μg)
production loss (deaths from infectious disease or weight loss), weaner period (E. coli): less production loss compared to their respective saline controls
deaths [1]: H. parasuis deaths occurred
consistency of growth performance (individual weights at end of weaner period) ([2]; IL-5 medicated group): more consistent than all other groups
average weight, higher than saline medicated controls ([2]; IL-5 medicated group, Week 1): 5.5%
rate of gain (ROG), increase over saline medicated control ([2]; IL-5 medicated group, Week 1): 45.6%
total combined group weight, higher than saline medicated group ([2]; IL-5 medicated group, Week 1): 5.5%
average weight, higher than saline medicated controls ([2]; IL-5 medicated group, Week 2): 6.3%
rate of gain (ROG), increase over saline medicated control ([2]; IL-5 medicated group, Week 2): 19.6%
total combined group weight, higher than saline medicated group ([2]; IL-5 medicated group, Week 2): 6.3%
average weight, higher than saline medicated controls ([2]; IL-5 medicated group, Week 3): 8.8%
rate of gain (ROG), increase over saline medicated control ([2]; IL-5 medicated group, Week 3): 18.2%
total combined group weight, higher than saline medicated group ([2]; IL-5 medicated group, Week 3): 8.8%
average weight, higher than saline medicated controls ([2]; IL-5 medicated group, Week 4): 5.5%
rate of gain (ROG), increase over saline medicated control ([2]; IL-5 medicated group, Week 4): 8.8%
total combined group weight, higher than saline medicated group ([2]; IL-5 medicated group, Week 4): 11.1%
average weight, higher than saline medicated controls ([2]; IL-5 medicated group, Week 5): 7.8%
rate of gain (ROG), increase over saline medicated control ([2]; IL-5 medicated group, Week 5): 11.3%
total combined group weight, higher than saline medicated group ([2]; IL-5 medicated group, Week 5): 13.4%
average weight, higher than saline medicated controls ([2]; IL-5 medicated group, Week 6): 6.8%
rate of gain (ROG), increase over saline medicated control ([2]; IL-5 medicated group, Week 6): 9.1%
total combined group weight, higher than saline medicated group ([2]; IL-5 medicated group, Week 6): 18.6%
average weights during weaner period ([2]; IL-5 un-medicated group vs un-medicated saline controls): consistently small increase in average weights over the un-medicated saline controls except for the last week
increase in average weight compared to saline medicated control group [2, 3]: 7%
increase in total weight compared to saline medicated control group [2, 3]: 18%
increase in weight gain compared to saline medicated control group [2, 3]: 9%
average weights of individual pigs during trial ([2]; medicated): consistently higher average weights than all other groups
increase of average warm carcass weight over the medicated saline control ([2]; medicated): 6 kg
rate of gain over the weaner period ([2]; medicated): consistently increased the rate of gain in the medicated pigs
total weights of all pigs in group over the entire production period ([2]; medicated): significant increase in total weights compared to all other groups
warm carcass weight ([2]; medicated with antibiotics, vs saline controls): increased warm carcass weight compared to saline controls when pigs were medicated with antibiotics
individual final weights ([2]; medicated, all pigs of group): above 90 kg
total combined group weight above saline medicated group ([2]; over 6 weeks for a group of 20 pigs, medicated): 89 kg
rate of gain over the weaner period ([2]; un-medicated): generally higher than the un-medicated saline control
variation in individual pig weights ([2]; up to slaughter): reduced variation in individual pig weights up to slaughter
dressing percentage of carcasses at slaughter ([2]; with or without antibiotics, vs saline controls): improved dressing percentage regardless of antibiotic administration; also recorded: significantly higher % dressing than the respective saline controls

From patent US20040170601A1, “Method of improving the growth performance of an animal” (priority 2001, published 2004)
